Laboratory results taken from patent publication US12467929.
One block for each substance: values may come before it.

Assays:
[1] = target: recombinant UBE3A protein (Homo sapiens (Human)) (UniProt Q05086); experiment: Simoa; capture GTX; 3E5 0.8 ug/ml; UBE3A 20.0 ng/ml
[2] = target: recombinant UBE3A protein (Homo sapiens (Human)) (UniProt Q05086); experiment: Simoa; capture GTX + helper beads; 3E5 0.4 ug/ml; UBE3A 0.160 ng/ml
[3] = target: recombinant UBE3A protein (Homo sapiens (Human)) (UniProt Q05086); experiment: Simoa head-to-head, Table 11; capture MS 2F6; UBE3A 0.80 ng/ml
[4] = target: recombinant UBE3A protein (Homo sapiens (Human)) (UniProt Q05086); experiment: Simoa; capture GTX; SBG 75 pm; UBE3A 4.00 ng/ml
[5] = target: recombinant UBE3A protein (Homo sapiens (Human)) (UniProt Q05086); experiment: Simoa; capture GTX + helper beads; 3E5 0.2 ug/ml; UBE3A 0.0320 ng/ml
[6] = target: recombinant UBE3A protein (Homo sapiens (Human)) (UniProt Q05086); experiment: Simoa head-to-head, Table 11; capture GTX; UBE3A 0.80 ng/ml
[7] = target: recombinant UBE3A protein (Homo sapiens (Human)) (UniProt Q05086); experiment: Simoa; capture GTX; SBG 100 pm; UBE3A 4.00 ng/ml
[8] = target: recombinant UBE3A protein (Homo sapiens (Human)) (UniProt Q05086); experiment: Simoa head-to-head, Table 11; capture MS 2F6; UBE3A 4.00 ng/ml
[9] = target: recombinant UBE3A protein (Homo sapiens (Human)) (UniProt Q05086); experiment: Simoa; capture GTX; SBG 150 pm; UBE3A 4.00 ng/ml
[10] = target: recombinant UBE3A protein (Homo sapiens (Human)) (UniProt Q05086); experiment: 3-step Simoa, 120 min bead step; capture GTX; UBE3A 0.00640 ng/ml
[11] = target: recombinant UBE3A protein (Homo sapiens (Human)) (UniProt Q05086); experiment: Simoa head-to-head, Table 10; capture MS 2F6; UBE3A 20.0 ng/ml
[12] = target: recombinant UBE3A protein (Homo sapiens (Human)) (UniProt Q05086); experiment: Simoa; capture GTX; 3E5 0.4 ug/ml; UBE3A 0.160 ng/ml
[13] = target: recombinant UBE3A protein (Homo sapiens (Human)) (UniProt Q05086); experiment: Simoa; capture GTX; 3E5 0.2 ug/ml; UBE3A 0.800 ng/ml
[14] = target: recombinant UBE3A protein (Homo sapiens (Human)) (UniProt Q05086); experiment: Simoa; capture GTX + helper beads; 3E5 0.4 ug/ml; UBE3A 0.0320 ng/ml
[15] = target: recombinant UBE3A protein (Homo sapiens (Human)) (UniProt Q05086); experiment: 3-step Simoa, 120 min bead step; capture GTX; UBE3A 500 ng/ml
[16] = target: recombinant UBE3A protein (Homo sapiens (Human)) (UniProt Q05086); experiment: Simoa; capture GTX; 3E5 0.4 ug/ml; UBE3A 0.800 ng/ml
[17] = target: recombinant UBE3A protein (Homo sapiens (Human)) (UniProt Q05086); experiment: 3-step Simoa; capture MS 2F6; UBE3A 0.010 ng/ml
[18] = target: recombinant UBE3A protein (Homo sapiens (Human)) (UniProt Q05086); experiment: Simoa head-to-head, Table 11; capture GTX; UBE3A 0.16 ng/ml
[19] = target: recombinant UBE3A protein (Homo sapiens (Human)) (UniProt Q05086); experiment: 2-step Simoa; capture GTX; UBE3A 0.122 ng/ml
[20] = target: recombinant UBE3A protein (Homo sapiens (Human)) (UniProt Q05086); experiment: 3-step Simoa; capture GTX; UBE3A 125 ng/ml

Sequence of UniProt Q05086 (Q05086 whole entry): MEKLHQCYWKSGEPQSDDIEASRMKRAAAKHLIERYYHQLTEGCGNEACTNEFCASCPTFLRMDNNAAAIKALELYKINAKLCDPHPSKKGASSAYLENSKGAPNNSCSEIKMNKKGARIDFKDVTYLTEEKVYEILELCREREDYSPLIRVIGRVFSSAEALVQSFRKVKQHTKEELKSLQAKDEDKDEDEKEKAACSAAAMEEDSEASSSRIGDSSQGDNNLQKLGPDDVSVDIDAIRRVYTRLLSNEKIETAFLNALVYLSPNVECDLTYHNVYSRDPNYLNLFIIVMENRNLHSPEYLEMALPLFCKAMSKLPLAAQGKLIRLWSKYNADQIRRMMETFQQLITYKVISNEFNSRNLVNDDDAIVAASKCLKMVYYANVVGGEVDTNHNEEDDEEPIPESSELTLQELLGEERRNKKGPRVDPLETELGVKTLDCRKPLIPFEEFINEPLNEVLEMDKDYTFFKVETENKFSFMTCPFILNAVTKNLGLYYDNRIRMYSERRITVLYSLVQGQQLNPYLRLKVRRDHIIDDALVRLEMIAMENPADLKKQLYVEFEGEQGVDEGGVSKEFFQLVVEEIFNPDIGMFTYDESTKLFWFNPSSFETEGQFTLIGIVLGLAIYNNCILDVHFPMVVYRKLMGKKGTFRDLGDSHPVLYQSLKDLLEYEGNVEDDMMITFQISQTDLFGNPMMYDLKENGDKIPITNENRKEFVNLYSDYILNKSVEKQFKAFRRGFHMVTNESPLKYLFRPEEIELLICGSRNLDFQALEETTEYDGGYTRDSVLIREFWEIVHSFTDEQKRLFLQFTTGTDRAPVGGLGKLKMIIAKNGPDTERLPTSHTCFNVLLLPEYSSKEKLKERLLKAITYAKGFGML

AEB1 [1]: 9.16 | AEB2 [1]: 10.3 | AEB3 [1]: 9.37 | Average AEB [1]: 9.62 | Signal to Background [1]: 78.5 | AEB1 [2]: 0.0913 | AEB2 [2]: 0.105 | Average AEB [2]: 0.0983 | Signal to Background [2]: 5.03 | AEB1 [3]: 0.0183 | AEB2 [3]: 0.0197 | Ave AEB [3]: 0.019 | Signal to Background [3]: 5.03 | AEB1 [4]: 0.459 | AEB2 [4]: 0.46 | AEB3 [4]: 0.458 | Average AEB [4]: 0.459 | Signal to Background [4]: 105 | AEB1 [5]: 0.0226 | AEB2 [5]: 0.0236 | Average AEB [5]: 0.0231 | Signal to Background [5]: 2.39 | AEB1 [6]: 0.0916 | AEB2 [6]: 0.0961 | Ave AEB [6]: 0.0939 | Signal to Background [6]: 11.5 | AEB1 [7]: 0.739 | AEB2 [7]: 0.78 | AEB3 [7]: 0.707 | Average AEB [7]: 0.742 | Signal to Background [7]: 88.5 | AEB1 [8]: 0.0868 | AEB2 [8]: 0.0803 | Ave AEB [8]: 0.0836 | Signal to Background [8]: 22.1 | AEB1 [9]: 0.907 | AEB2 [9]: 0.938 | AEB3 [9]: 0.927 | Average AEB [9]: 0.924 | Signal to Background [9]: 69.7 | AEB1 [10]: 0.0054 | AEB2 [10]: 0.0055 | Ave AEB [10]: 0.0055 | Signal to Background [10]: 3.22 | AEB1 [11]: 0.514 | AEB2 [11]: 0.552 | Ave AEB [11]: 0.533 | Signal to Background [11]: 39.4 | AEB1 [12]: 0.172 | AEB2 [12]: 0.165 | AEB3 [12]: 0.174 | Average AEB [12]: 0.171 | Signal to Background [12]: 2.72 | AEB1 [13]: 0.355 | AEB2 [13]: 0.378 | AEB3 [13]: 0.358 | Average AEB [13]: 0.364 | Signal to Background [13]: 9.26 | AEB1 [14]: 0.037 | AEB2 [14]: 0.0369 | Average AEB [14]: 0.037 | Signal to Background [14]: 1.89 | AEB1 [15]: 16.8 | AEB2 [15]: 16.8 | Ave AEB [15]: 16.8 | Signal to Background [15]: 9850 | AEB1 [16]: 0.509 | AEB2 [16]: 0.48 | AEB3 [16]: 0.478 | Average AEB [16]: 0.489 | Signal to Background [16]: 7.81 | AEB1 [17]: 0.0035 | AEB2 [17]: 0.0048 | Ave AEB [17]: 0.0042 | Signal to Background [17]: 1.06 | AEB1 [18]: 0.0288 | AEB2 [18]: 0.0291 | Ave AEB [18]: 0.0289 | Signal to Background [18]: 3.53
Substance: anti-UBE3A antibody 3E5 (SAB1404508-100 ug, Millipore-Sigma)

AEB1 [19]: 0.004 | AEB2 [19]: 0.0037 | Ave AEB [19]: 0.0039 | Signal to Background [19]: 1.18 | AEB1 [20]: 0.122 | AEB2 [20]: 0.122 | Ave AEB [20]: 0.122 | Signal to Background [20]: 55.8
Substance: NB500-240 (Novus) (antibody)
